Publication PMC12392091

Target: T1, DdaA (Ab) (Acinetobacter baumannii ATCC 17978, UniProt V5VBS3 1-335)
T1 sequence: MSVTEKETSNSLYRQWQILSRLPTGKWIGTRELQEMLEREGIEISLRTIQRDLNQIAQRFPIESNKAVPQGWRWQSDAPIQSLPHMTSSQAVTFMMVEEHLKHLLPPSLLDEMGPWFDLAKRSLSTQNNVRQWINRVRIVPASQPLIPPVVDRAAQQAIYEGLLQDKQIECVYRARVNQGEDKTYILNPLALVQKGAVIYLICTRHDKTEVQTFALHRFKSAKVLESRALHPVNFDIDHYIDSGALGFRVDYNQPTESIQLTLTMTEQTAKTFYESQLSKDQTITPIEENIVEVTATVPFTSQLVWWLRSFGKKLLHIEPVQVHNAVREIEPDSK
Assay: EMSA

B1: recA promoter WT (FAM-AR-DDRM) (dsDNA)
DNA 1: TTTCCGGTCTGGGCGACACAATATGACGTGTAATTTTAACC
DNA 2: GGTTAAAATTACACGTCATATTGTGTCGCCCAGACCGGAAA
B1: binds.
